# Patent US20130157953A1, “TREATMENT OF CARDIAC CONDITIONS” (Zealand Pharma A/S, priority 2010, published 2013)
# Numbered stars: 1 amine (or outer) side, 2 acyl side, 3 side chain; on linkers, the order of the positions; unused ones are H or OH. Bridge positions count the residues as written; N and C are the ends. Square brackets hold non-standard residues; d marks the D form. Side chains are listed from the residue outwards. * marks the point of attachment. γGlu = O=C(O)[C@H](CCC(=O)[*:2])N[*:1]; Palmitoyl = CCCCCCCCCCCCCCCC(=O)*; Aib = CC(C)(N)C(=O)O
# B1: Compound 44 (peptide)
# peptide: H-H[dS]QGTFTSDYSKYLDSKAAHDFVEWLLRA-NH2
# SMILES: CC(C)C[C@H](NC(=O)[C@H](CC(C)C)NC(=O)[C@H](Cc1c[nH]c2ccccc12)NC(=O)[C@H](CCC(=O)O)NC(=O)[C@@H](NC(=O)[C@H](Cc1ccccc1)NC(=O)[C@H](CC(=O)O)NC(=O)[C@H](Cc1c[nH]cn1)NC(=O)[C@H](C)NC(=O)[C@H](C)NC(=O)[C@H](CCCCN)NC(=O)[C@H](CO)NC(=O)[C@H](CC(=O)O)NC(=O)[C@H](CC(C)C)NC(=O)[C@H](Cc1ccc(O)cc1)NC(=O)[C@H](CCCCN)NC(=O)[C@H](CO)NC(=O)[C@H](Cc1ccc(O)cc1)NC(=O)[C@H](CC(=O)O)NC(=O)[C@H](CO)NC(=O)[C@@H](NC(=O)[C@H](Cc1ccccc1)NC(=O)[C@@H](NC(=O)CNC(=O)[C@H](CCC(N)=O)NC(=O)[C@@H](CO)NC(=O)[C@@H](N)Cc1c[nH]cn1)[C@@H](C)O)[C@@H](C)O)C(C)C)C(=O)N[C@@H](CCCNC(=N)N)C(=O)N[C@@H](C)C(N)=O
# B2: Compound 259 (peptide)
# peptide: H-HSQGTFTSDYSKYLDERRAQDFVWLMNT-NH2
# modifications: lactam 12-16
# SMILES: CSCC[C@H](NC(=O)[C@H](CC(C)C)NC(=O)[C@H](Cc1c[nH]c2ccccc12)NC(=O)[C@@H](NC(=O)[C@H](Cc1ccccc1)NC(=O)[C@H](CC(=O)O)NC(=O)[C@H](CCC(N)=O)NC(=O)[C@H](C)NC(=O)[C@H](CCCNC(=N)N)NC(=O)[C@H](CCCNC(=N)N)NC(=O)[C@@H]1CCC(=O)NCCCC[C@H](NC(=O)[C@H](CO)NC(=O)[C@H](Cc2ccc(O)cc2)NC(=O)[C@H](CC(=O)O)NC(=O)[C@H](CO)NC(=O)[C@@H](NC(=O)[C@H](Cc2ccccc2)NC(=O)[C@@H](NC(=O)CNC(=O)[C@H](CCC(N)=O)NC(=O)[C@H](CO)NC(=O)[C@@H](N)Cc2c[nH]cn2)[C@@H](C)O)[C@@H](C)O)C(=O)N[C@@H](Cc2ccc(O)cc2)C(=O)N[C@@H](CC(C)C)C(=O)N[C@@H](CC(=O)O)C(=O)N1)C(C)C)C(=O)N[C@@H](CC(N)=O)C(=O)N[C@H](C(N)=O)[C@@H](C)O
# B3: Compound 202 (peptide)
# peptide: H-HSQGTFTSDYSKYLDK([γGlu-Palmitoyl])KAAHDFVEWLLRA-NH2
# SMILES: CCCCCCCCCCCCCCCC(=O)N[C@@H](CCC(=O)NCCCC[C@H](NC(=O)[C@H](CC(=O)O)NC(=O)[C@H](CC(C)C)NC(=O)[C@H](Cc1ccc(O)cc1)NC(=O)[C@H](CCCCN)NC(=O)[C@H](CO)NC(=O)[C@H](Cc1ccc(O)cc1)NC(=O)[C@H](CC(=O)O)NC(=O)[C@H](CO)NC(=O)[C@@H](NC(=O)[C@H](Cc1ccccc1)NC(=O)[C@@H](NC(=O)CNC(=O)[C@H](CCC(N)=O)NC(=O)[C@H](CO)NC(=O)[C@@H](N)Cc1c[nH]cn1)[C@@H](C)O)[C@@H](C)O)C(=O)N[C@@H](CCCCN)C(=O)N[C@@H](C)C(=O)N[C@@H](C)C(=O)N[C@@H](Cc1c[nH]cn1)C(=O)N[C@@H](CC(=O)O)C(=O)N[C@@H](Cc1ccccc1)C(=O)N[C@H](C(=O)N[C@@H](CCC(=O)O)C(=O)N[C@@H](Cc1c[nH]c2ccccc12)C(=O)N[C@@H](CC(C)C)C(=O)N[C@@H](CC(C)C)C(=O)N[C@@H](CCCNC(=N)N)C(=O)N[C@@H](C)C(N)=O)C(C)C)C(=O)O
# B4: Compound 45 (peptide)
# peptide: H-H[Aib]QGTFTSDYSKYLDSKAAHDFVEWLLRA-NH2
# SMILES: CC(C)C[C@H](NC(=O)[C@H](CC(C)C)NC(=O)[C@H](Cc1c[nH]c2ccccc12)NC(=O)[C@H](CCC(=O)O)NC(=O)[C@@H](NC(=O)[C@H](Cc1ccccc1)NC(=O)[C@H](CC(=O)O)NC(=O)[C@H](Cc1c[nH]cn1)NC(=O)[C@H](C)NC(=O)[C@H](C)NC(=O)[C@H](CCCCN)NC(=O)[C@H](CO)NC(=O)[C@H](CC(=O)O)NC(=O)[C@H](CC(C)C)NC(=O)[C@H](Cc1ccc(O)cc1)NC(=O)[C@H](CCCCN)NC(=O)[C@H](CO)NC(=O)[C@H](Cc1ccc(O)cc1)NC(=O)[C@H](CC(=O)O)NC(=O)[C@H](CO)NC(=O)[C@@H](NC(=O)[C@H](Cc1ccccc1)NC(=O)[C@@H](NC(=O)CNC(=O)[C@H](CCC(N)=O)NC(=O)C(C)(C)NC(=O)[C@@H](N)Cc1c[nH]cn1)[C@@H](C)O)[C@@H](C)O)C(C)C)C(=O)N[C@@H](CCCNC(=N)N)C(=O)N[C@@H](C)C(N)=O
# B5: Compound 261 (peptide)
# peptide: H-HSQGTFTSDYSKYLDSKAAHDFVEWLLKA-NH2
# modifications: lactam 24-28
# SMILES: CC(C)C[C@@H]1NC(=O)[C@H](CC(C)C)NC(=O)[C@H](Cc2c[nH]c3ccccc23)NC(=O)[C@@H](NC(=O)[C@@H](NC(=O)[C@H](Cc2ccccc2)NC(=O)[C@H](CC(=O)O)NC(=O)[C@H](Cc2c[nH]cn2)NC(=O)[C@H](C)NC(=O)[C@H](C)NC(=O)[C@H](CCCCN)NC(=O)[C@H](CO)NC(=O)[C@H](CC(=O)O)NC(=O)[C@H](CC(C)C)NC(=O)[C@H](Cc2ccc(O)cc2)NC(=O)[C@H](CCCCN)NC(=O)[C@H](CO)NC(=O)[C@H](Cc2ccc(O)cc2)NC(=O)[C@H](CC(=O)O)NC(=O)[C@H](CO)NC(=O)[C@@H](NC(=O)[C@H](Cc2ccccc2)NC(=O)[C@@H](NC(=O)CNC(=O)[C@H](CCC(N)=O)NC(=O)[C@H](CO)NC(=O)[C@@H](N)Cc2c[nH]cn2)[C@@H](C)O)[C@@H](C)O)C(C)C)CCC(=O)NCCCC[C@@H](C(=O)N[C@@H](C)C(N)=O)NC1=O
# Key:
# [1] = target: human glucagon-like peptide 1 receptor (GLP-1R) (human, UniProt P43220 24-463); assay: cell-based or functional assay
# [2] = target: human glucagon receptor (Glucagon-R) (human, UniProt P47871 26-477); assay: cell-based or functional assay
# human glucagon receptor (Glucagon-R), sequence (P47871 26-477): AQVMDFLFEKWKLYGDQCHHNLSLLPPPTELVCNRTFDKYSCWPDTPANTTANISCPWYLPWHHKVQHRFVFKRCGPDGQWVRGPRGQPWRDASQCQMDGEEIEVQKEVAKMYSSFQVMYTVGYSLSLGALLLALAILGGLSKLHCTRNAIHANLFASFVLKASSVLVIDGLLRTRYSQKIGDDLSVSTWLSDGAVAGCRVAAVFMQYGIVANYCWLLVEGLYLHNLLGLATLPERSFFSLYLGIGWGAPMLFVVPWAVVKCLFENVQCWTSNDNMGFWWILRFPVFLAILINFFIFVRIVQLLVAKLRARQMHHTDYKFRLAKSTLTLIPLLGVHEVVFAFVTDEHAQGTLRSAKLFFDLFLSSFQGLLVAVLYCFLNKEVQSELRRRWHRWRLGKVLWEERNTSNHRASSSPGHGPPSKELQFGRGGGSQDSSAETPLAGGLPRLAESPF
Binder,"EC50 (nM) GLP-1R; cAMP content, HEK293 cells expressing human GLP-1R [1]","EC50 (nM) GuR; cAMP content, HEK293 cells expressing the human glucagon receptor [2]"
H-HSQGTFTSDYSKYLDRARADDFVAWLKST-NH2 [Compound 12],0.23 nM,0.5 nM
B1,0.09 nM,0.11 nM
B2,0.04 nM,0.03 nM
H-HSQGTFTSDYSKYLDSKAAHDFVEWLLRA-NH2 [Compound 48],0.06 nM,0.06 nM
H-HSQGTFTSDYSAYLDSRRAQDFVWLMNT-NH2 [Compound 242],1.4 nM,0.4 nM
B3,0.2 nM,0.13 nM
B4,0.08 nM,0.06 nM
H-HSQGTFTSDYSKYLDSKAAQDFVWLMNT-NH2 [Compound 260],0.02 nM,0.07 nM
H-HSQGTFTSDYSRYLDERRAQDFVWLMNT-NH2 [Compound 258],0.07 nM,0.06 nM
H-HSQGTFTSDYSKYLDKRRAEDFVWLMNT-NH2 [Compound 256],0.2 nM,0.07 nM
B5,0.03 nM,0.07 nM
